Target: the molecule itself
Assay: SEC; Beckman Ultraspherogel SEC2000 column, 20 mM Tris-HCl, 300 mM NaCl, pH 7; size by comparison with calibration standards; oligomer of the protein with itself

Protein	stoichiometry N
CcmK1 from Synechocystis sp. PCC6803 with C-terminal TEV site and His4 tag (K1^-TH) (natural protein, UniProt P72760 1-111, looked up, CcmK1, Synechocystis sp; PCC6803, full-length gene, codon-optimized for E. coli; A TEV protease recognition site stands between protein and His4 tag; also called K1^-TH 6803; CcmK1 Syn6803; source: E. coli BL21 (DE3), purified (TALON cobalt IMAC); not shown: His4, C-terminal, kept) MSIAVGMIETLGFPAVVEAADSMVKAARVTLVGYEKIGSGRVTVIVRGDVSEVQASVTAGIENIRRVNGGEVLSNHIIARPHENLEYVLPIRYTEAVEQFREIVNPSIIRR	6
CcmK4 from Synechocystis sp. PCC6803 with N-terminal His4 tag and TEV site (^HT-K4) (natural protein, UniProt P73407 1-112, looked up, CcmK4, Synechocystis sp; PCC6803, full-length gene, codon-optimized for E. coli; A TEV site stands between tag and protein; source: E. coli BL21 (DE3), purified (TALON cobalt IMAC); not shown: His4, N-terminal, kept) MSAQSAVGSIETIGFPGILAAADAMVKAGRITIVGYIRAGSARFTLNIRGDVQEVKTAMAAGIDAINRTEGADVKTWVIIPRPHENVVAVLPIDFSPEVEPFREAAEGLNRR	6
CcmK4 from Synechocystis sp. PCC6803 with C-terminal TEV site and His4 tag (K4^-TH) (natural protein, UniProt P73407 1-112, looked up, CcmK4, Synechocystis sp; PCC6803, full-length gene, codon-optimized for E. coli; source: E. coli BL21 (DE3), purified (TALON cobalt IMAC); not shown: His4, C-terminal, kept) MSAQSAVGSIETIGFPGILAAADAMVKAGRITIVGYIRAGSARFTLNIRGDVQEVKTAMAAGIDAINRTEGADVKTWVIIPRPHENVVAVLPIDFSPEVEPFREAAEGLNRR	6

Target: the molecule itself
Assay: native MS; nano-ESI Q-ToF, positive ion mode, 150 mM ammonium acetate pH 8, soft ionization; tandem MS/MS (CID) of hexamer ions gives monomers and pentamers; oligomer of the protein with itself

Protein	stoichiometry N
CcmK2 from Synechococcus elongatus PCC 7942 with C-terminal His6 tag (K2^-H Syn7942) (natural protein, Synechococcus elongatus PCC7942, UniProt Q03511 1-102, looked up, also called K2^-H 7942; Syn7942 K2^-H; source: E. coli BL21 (DE3), purified (TALON cobalt IMAC); not shown: His6, C-terminal, kept) MPIAVGMIETLGFPAVVEAADAMVKAARVTLVGYEKIGSGRVTVIVRGDVSEVQASVSAGLDSAKRVAGGEVLSHHIIARPHENLEYVLPIRYTEAVEQFRM	6
CcmK1 from Synechocystis sp. PCC6803, TEV-proteolysis product of K1^-TH (K1^-) (natural protein, UniProt P72760 1-111, looked up, CcmK1, Synechocystis sp; PCC6803, full-length gene, codon-optimized for E. coli; Measured mass indicated loss of the first Met residue; also called untagged K1^- 6803; Syn6803 K1^-; source: E. coli BL21 (DE3), purified (TALON cobalt IMAC), tag removed with turbo TEV protease; not shown: His4, C-terminal, cleaved) MSIAVGMIETLGFPAVVEAADSMVKAARVTLVGYEKIGSGRVTVIVRGDVSEVQASVTAGIENIRRVNGGEVLSNHIIARPHENLEYVLPIRYTEAVEQFREIVNPSIIRR	6
CcmK4 from Synechocystis sp. PCC6803, TEV-proteolysis product of ^HT-K4 (^-K4) (natural protein, UniProt P73407 1-112, looked up, CcmK4, Synechocystis sp; PCC6803, full-length gene, codon-optimized for E. coli; also called Syn6803 -K4; source: E. coli BL21 (DE3), purified (TALON cobalt IMAC), tag removed with turbo TEV protease; not shown: His4, N-terminal, cleaved) MSAQSAVGSIETIGFPGILAAADAMVKAGRITIVGYIRAGSARFTLNIRGDVQEVKTAMAAGIDAINRTEGADVKTWVIIPRPHENVVAVLPIDFSPEVEPFREAAEGLNRR	6
CcmK4 from Synechocystis sp. PCC6803, TEV-proteolysis product of K4^-TH (K4^-) (natural protein, UniProt P73407 1-112, looked up, CcmK4, Synechocystis sp; PCC6803, full-length gene, codon-optimized for E. coli; Sample partly degraded by proteolysis (species of similar but not identical mass in native MS); Measured mass indicated loss of the first Met residue; also called Syn6803 K4^-; source: E. coli BL21 (DE3), purified (TALON cobalt IMAC), tag removed with turbo TEV protease; not shown: His4, C-terminal, cleaved) MSAQSAVGSIETIGFPGILAAADAMVKAGRITIVGYIRAGSARFTLNIRGDVQEVKTAMAAGIDAINRTEGADVKTWVIIPRPHENVVAVLPIDFSPEVEPFREAAEGLNRR	6

Target: the molecule itself
Assay: AFM imaging; purified protein adsorbed on freshly cleaved mica, imaged in buffer in contact mode at ambient temperature; 10 mM NaPi, MES or Tris, 300 mM NaCl, pH 5.0 to 8.0, some with 0.5 mM additives; hexamers tiling into 2D assemblies

Protein	binding result
AAN K1^-TH: triple mutant of CcmK1 Syn6803 with N63 I64 R65 replaced by AAN of CcmK2 (natural protein, Synechocystis sp. PCC6803, UniProt P72760 1-111, looked up, CcmK1, Synechocystis sp; PCC6803, as K1^-TH with residues 63-65 NIR replaced by AAN; TEV site between protein and tag as in K1^-TH; also called A^63AN K1^-TH 6803; source: E. coli BL21 (DE3), purified (TALON cobalt IMAC); not shown: His4, C-terminal, kept) MSIAVGMIETLGFPAVVEAADSMVKAARVTLVGYEKIGSGRVTVIVRGDVSEVQASVTAGIEAANRVNGGEVLSNHIIARPHENLEYVLPIRYTEAVEQFREIVNPSIIRR	binds
R80A mutant of K1^-TH (CcmK1 Syn6803) (natural protein, Synechocystis sp. PCC6803, UniProt P72760 1-111, looked up, CcmK1, Synechocystis sp; PCC6803, as K1^-TH with R80A; TEV site between protein and tag as in K1^-TH; source: E. coli BL21 (DE3), purified (TALON cobalt IMAC); not shown: His4, C-terminal, kept) MSIAVGMIETLGFPAVVEAADSMVKAARVTLVGYEKIGSGRVTVIVRGDVSEVQASVTAGIENIRRVNGGEVLSNHIIAAPHENLEYVLPIRYTEAVEQFREIVNPSIIRR	binds
R28A mutant of K1^-TH (CcmK1 Syn6803) (natural protein, Synechocystis sp. PCC6803, UniProt P72760 1-111, looked up, CcmK1, Synechocystis sp; PCC6803, as K1^-TH with R28A; TEV site between protein and tag as in K1^-TH; source: E. coli BL21 (DE3), purified (TALON cobalt IMAC); not shown: His4, C-terminal, kept) MSIAVGMIETLGFPAVVEAADSMVKAAAVTLVGYEKIGSGRVTVIVRGDVSEVQASVTAGIENIRRVNGGEVLSNHIIARPHENLEYVLPIRYTEAVEQFREIVNPSIIRR	binds
D49A mutant of K1^-TH (CcmK1 Syn6803) (natural protein, Synechocystis sp. PCC6803, UniProt P72760 1-111, looked up, CcmK1, Synechocystis sp; PCC6803, as K1^-TH with D49A; TEV site between protein and tag as in K1^-TH; source: E. coli BL21 (DE3), purified (TALON cobalt IMAC); not shown: His4, C-terminal, kept) MSIAVGMIETLGFPAVVEAADSMVKAARVTLVGYEKIGSGRVTVIVRGAVSEVQASVTAGIENIRRVNGGEVLSNHIIARPHENLEYVLPIRYTEAVEQFREIVNPSIIRR	binds
R28A/R80A double mutant of K1^-TH (CcmK1 Syn6803) (natural protein, Synechocystis sp. PCC6803, UniProt P72760 1-111, looked up, CcmK1, Synechocystis sp; PCC6803, as K1^-TH with R28A and R80A; TEV site between protein and tag as in K1^-TH; source: E. coli BL21 (DE3), purified (TALON cobalt IMAC); not shown: His4, C-terminal, kept) MSIAVGMIETLGFPAVVEAADSMVKAAAVTLVGYEKIGSGRVTVIVRGDVSEVQASVTAGIENIRRVNGGEVLSNHIIAAPHENLEYVLPIRYTEAVEQFREIVNPSIIRR	binds
NIR K2^-TH: triple mutant of CcmK2 Syn6803 with A63 A64 N65 replaced by NIR of CcmK1 (natural protein, Synechocystis sp. PCC6803, UniProt P72761 1-103, looked up, CcmK2, Synechocystis sp; PCC6803, as K2^-TH with residues 63-65 AAN replaced by NIR; TEV site between protein and tag as in K2^-TH; also called N^63IR K2^-TH 6803; source: E. coli BL21 (DE3), purified (TALON cobalt IMAC); not shown: His4, C-terminal, kept) MSIAVGMIETRGFPAVVEAADSMVKAARVTLVGYEKIGSGRVTVIVRGDVSEVQASVSAGIENIRRVNGGEVLSTHIIARPHENLEYVLPIRYTEEVEQFRTY	binds

Reference: publication PMC5608322, “Spontaneous non-canonical assembly of CcmK hexameric components from β-carboxysome shells of cyanobacteria” (PLoS ONE, 2017)
